These results are taken from article PMC2920595 (Science (New York, N.Y.), 2009).

The experiment addresses T1, Ssh1p (large subunit, as in the purified Ssh1 complex) (Saccharomyces cerevisiae, UniProt P38353 1-490).
T1 sequence (looked up): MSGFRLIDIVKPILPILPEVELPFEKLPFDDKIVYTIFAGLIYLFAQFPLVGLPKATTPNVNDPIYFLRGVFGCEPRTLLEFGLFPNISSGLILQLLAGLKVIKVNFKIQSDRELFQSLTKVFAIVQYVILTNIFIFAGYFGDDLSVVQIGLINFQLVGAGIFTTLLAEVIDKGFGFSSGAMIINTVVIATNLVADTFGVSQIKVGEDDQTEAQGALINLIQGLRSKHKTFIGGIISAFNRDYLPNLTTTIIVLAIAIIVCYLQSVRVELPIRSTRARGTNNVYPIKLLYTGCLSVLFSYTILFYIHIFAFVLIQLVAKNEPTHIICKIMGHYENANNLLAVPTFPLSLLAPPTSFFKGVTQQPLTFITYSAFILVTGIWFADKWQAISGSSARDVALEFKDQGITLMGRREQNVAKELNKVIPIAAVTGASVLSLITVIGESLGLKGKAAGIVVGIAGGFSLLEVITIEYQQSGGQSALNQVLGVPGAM
Briefly: cryo-EM structure.

B1: ribosomal protein rpL25 (yeast 60S subunit) (natural protein)
chain: not shown
For the molecule B1, the binding result is listed as “binds”.
